Measurements from patent publication US20040141968A1 (published 2004).

B1: human DC-SIGN (DC-Specific ICAM-Grabbing Nonintegrin) expressed at the cell surface (receptor, UniProt Q9NNX6 1-404, looked up)
chain: MSDSKEPRLQQLGLLEEEQLRGLGFRQTRGYKSLAGCLGHGPLVLQLLSFTLLAGLLVQVSKVPSSISQEQSRQDAIYQNLTQLKAAVGELSEKSKLQEIYQELTQLKAAVGELPEKSKLQEIYQELTRLKAAVGELPEKSKLQEIYQELTWLKAAVGELPEKSKMQEIYQELTRLKAAVGELPEKSKQQEIYQELTRLKAAVGELPEKSKQQEIYQELTRLKAAVGELPEKSKQQEIYQELTQLKAAVERLCHPCPWEWTFFQGNCYFMSNSQRNWHDSITACKEVGAQLVVIKSAEEQNFLQLQSSRSNRFTWMGLSDLNQEGTWQWVDGSPLLPSFKQYWNRGEPNNVGEEDCAEFSGNGWNDDKCNLAKFWICKKSAASCSRDEEQFLSPAPATPNPPPA
notes: whole, on cells; On transduced THP-1, HeLa and HEK 293T cells, and naturally on monocyte-derived dendritic cells; For HEK 293T the cDNA was in pcDNA3 myc-His (version A); also called CD209; DC-SIGN^+ THP-1 cells
B2: DC-SIGNR expressed on transiently transfected HEK 293T cells (receptor, human, UniProt Q9H2X3 1-399, looked up)
chain: MSDSKEPRVQQLGLLEEDPTTSGIRLFPRDFQFQQIHGHKSSTGCLGHGALVLQLLSFMLLAGVLVAILVQVSKVPSSLSQEQSEQDAIYQNLTQLKAAVGELSEKSKLQEIYQELTQLKAAVGELPEKSKLQEIYQELTRLKAAVGELPEKSKLQEIYQELTRLKAAVGELPEKSKLQEIYQELTRLKAAVGELPEKSKLQEIYQELTELKAAVGELPEKSKLQEIYQELTQLKAAVGELPDQSKQQQIYQELTDLKTAFERLCRHCPKDWTFFQGNCYFMSNSQRNWHDSVTACQEVRAQLVVIKTAEEQNFLQLQTSRSNRFSWMGLSDLNQEGTWQWVDGSPLSPSFQRYWNSGEPNNSGNEDCAEFSGSGWNDNRCDVDNYWICKKPAACFRDE
notes: whole, on cells
B3: recombinant soluble CRD of DC-SIGN (amino acids 254-404) (receptor)
chain: HPCPWEWTFFQGNCYFMSNSQRNWHDSITACKEVGAQLVVIKSAEEQNFLQLQSSRSNRFTWMGLSDLNQEGTWQWVDGSPLLPSFKQYWNRGEPNNVGEEDCAEFSGNGWNDDKCNLAKFWICKKSAASCSRDEEQFLSPAPATPNPPPA
notes: range 254-404; Purified on Ni-NTA and mannose-agarose; also called DC-SIGN CRD; recombinant soluble CRD domain of DC-SIGN

Experiments:
HIV-1 gp120 (MN isolate) [1] = molecular target: T1, HIV-1 gp120 (MN isolate) (HIV-1 (MN isolate), UniProt P05877 32-513, biotinylated when used as the labelled ligand on cells; unlabelled as competitor and on the SPR chip); assay: flow cytometry; biotinylated protein on transfected HEK 293T cells, PE-streptavidin
T1 construct: domain: gp120; Unlabelled gp120 came from the NIBSC repository; also called biotinylated HIV-1 gp120; HIV-1 Env glycoprotein 120

[2] = molecular target: T2, biotinylated Bovine Serum Albumine (bovine, UniProt P02769 25-607); assay: flow cytometry; biotinylated BSA on HEK 293T cells transfected with DC-SIGN, PE-streptavidin
T2 construct: also called BSA; biotinylated-BSA
T2 sequence (P02769 25-607 limits assumed): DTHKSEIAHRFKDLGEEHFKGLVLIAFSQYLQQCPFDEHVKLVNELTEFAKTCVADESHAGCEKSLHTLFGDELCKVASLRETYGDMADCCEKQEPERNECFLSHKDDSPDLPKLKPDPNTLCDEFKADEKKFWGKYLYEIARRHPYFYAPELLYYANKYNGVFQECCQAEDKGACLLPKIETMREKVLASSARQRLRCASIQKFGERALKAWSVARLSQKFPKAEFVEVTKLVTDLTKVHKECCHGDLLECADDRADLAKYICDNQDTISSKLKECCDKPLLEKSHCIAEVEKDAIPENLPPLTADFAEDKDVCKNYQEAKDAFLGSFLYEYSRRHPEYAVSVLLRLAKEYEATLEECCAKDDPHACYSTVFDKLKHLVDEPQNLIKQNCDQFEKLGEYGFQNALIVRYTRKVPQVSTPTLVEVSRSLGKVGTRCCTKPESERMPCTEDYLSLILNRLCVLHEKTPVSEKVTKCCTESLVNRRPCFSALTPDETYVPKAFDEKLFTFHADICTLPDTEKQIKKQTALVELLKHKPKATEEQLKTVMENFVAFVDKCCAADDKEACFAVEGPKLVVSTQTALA

[3] = molecular target: T2, biotinylated Bovine Serum Albumine; assay: flow cytometry; biotinylated BSA on HEK 293T cells transfected with DC-SIGNR, PE-streptavidin
HIV-1 gp120 (MN isolate) [4] = molecular target: T1, HIV-1 gp120 (MN isolate); assay: SPR (Biacore); DC-SIGN CRD injected over immobilised HIV-1 gp120; from koff/kon
[5] = molecular target: T3, HSV-1 glycoprotein B, soluble (HSV-1, UniProt P10211 31-730); assay: SPR; DC-SIGN CRD injected over immobilised HSV-1 gB
T3 construct: also called HSV-1 gB; gB HSV

HIV-1 gp120 (MN isolate) [6] = molecular target: T1, HIV-1 gp120 (MN isolate); assay: SPR (Biacore); DC-SIGN CRD injected over immobilised HIV-1 gp120; Langmuir fit, average

Row | Binder | binding result (HIV-1 gp120 (MN isolate) [1]) | binding result [2] | binding result [3] | Kd (HIV-1 gp120 (MN isolate) [4]) | binding result [5] | koff (HIV-1 gp120 (MN isolate) [6]) | kon (HIV-1 gp120 (MN isolate) [6])
1 | B1 | binds | no binding | – | – | – | – | –
2 | B2 | binds | – | no binding | – | – | – | –
3 | B3 | – | – | – | 300 nM | no binding (tested: 0.13 to 1 µM) | 0.00101 s⁻¹ | 3330 M⁻¹ s⁻¹
